Measured values: the supplement of paper PMC7125110
± gives the standard error. For some assays here: Variants at the floor of the assay were thinned out.

B1: glmS ribozyme (parent)
chain: AUAAAAGCGCCAGAACUACAGAAAUGUAGUUGACGAGGAGGAGGUUUAUCGAAUUUUCGGCGGAUGCCUCCAAA

Key:
Details in all cases: with glucosamine-6-phosphate
[1] = variants of: B1; experiment: kcat; higher = faster cleavage; RNA array
Summary of the method: (§1)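 kobs was derived by fitting per-tile medians to one- or two-exponential decays after normalising signals to baseline and to non-cleaving reference variants. Those signals came from barcoded ribozyme variants transcribed in situ by E. coli RNA polymerase on sequenced MiSeq chips, followed through a hybridised Cy3 probe at 37 °C and imaged over ~14 h. Glucosamine-6-phosphate (40 μM to 10 mM) in HEPES/KCl/Mg(OAc)2 buffer was flowed in. Weighted Michaelis–Menten fits across concentrations then gave kcat and KM.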

[2] = variants of: B1; experiment: KM; higher = weaker cofactor use; RNA array
Summary of the method: as §1

[3] = variants of: B1; experiment: self-cleavage kobs at 40 uM GlcN6P; higher = faster cleavage; RNA array
Summary of the method: as §1

[4] = variants of: B1; experiment: self-cleavage kobs at 160 uM GlcN6P; higher = faster cleavage; RNA array
Summary of the method: as §1

[5] = variants of: B1; experiment: self-cleavage kobs at 640 uM GlcN6P; higher = faster cleavage; RNA array
Summary of the method: as §1

[6] = variants of: B1; experiment: self-cleavage kobs at 2500 uM GlcN6P; higher = faster cleavage; RNA array
Summary of the method: as §1

[7] = variants of: B1; experiment: self-cleavage kobs at 10000 uM GlcN6P; higher = faster cleavage; RNA array
Summary of the method: as §1

Variant	kcat [1] [s⁻¹]	KM [2] [mM]	self-cleavage kobs at 40 uM GlcN6P [3] [s⁻¹]	self-cleavage kobs at 160 uM GlcN6P [4] [s⁻¹]	self-cleavage kobs at 640 uM GlcN6P [5] [s⁻¹]	self-cleavage kobs at 2500 uM GlcN6P [6] [s⁻¹]	self-cleavage kobs at 10000 uM GlcN6P [7] [s⁻¹]
A14C U54G	0.00619 ± 0.0017	3.31 ± 1.3	0.00011 ± 1.7e-05	0.000219 ± 3.6e-05	0.00107 ± 0.00016	0.00296 ± 0.00041	0.00448 ± 0.00056
G13U U55G	0.00153 ± 0.00021	3.83 ± 0.78	2.48e-05 ± 7.6e-06	6.37e-05 ± 8.5e-06	0.000195 ± 2.5e-05	0.000643 ± 7.1e-05	0.00109 ± 0.00011
G13C A42G	0.00017 ± 1.8e-05	4.03 ± 0.92	< 1e-05		3.16e-05 ± 1.6e-05	6.19e-05 ± 1.3e-05	0.000123 ± 1.8e-05
G13A C67A	0.000273 ± 6.7e-05	4.49 ± 2.1			2.62e-05 ± 8.7e-06	0.000133 ± 2.4e-05	0.000181 ± 2.5e-05
A14C A33U	3.55e-05 ± 2.4e-06	0.994 ± 0.45					3.21e-05 ± 7.6e-06
G13U A64G	0.00128 ± 0.00031	4.21 ± 1.6		4.62e-05 ± 1.2e-05	0.000149 ± 1.9e-05	0.000657 ± 6.9e-05	0.000847 ± 8.3e-05
A14C U55A	0.00676 ± 0.0017	2.08 ± 0.72	0.000144 ± 1.6e-05	0.000546 ± 8.1e-05	0.00145 ± 0.00015	0.0031 ± 0.00043	0.00734 ± 0.00098
A14C U55C	0.00399 ± 0.0011	1.8 ± 0.66	8.57e-05 ± 1.1e-05	0.000312 ± 7.6e-05	0.00122 ± 0.00015	0.00171 ± 0.00035	0.00439 ± 0.00076
A14C U47A	0.00403 ± 0.00081	2.76 ± 0.76	7.39e-05 ± 9.6e-06	0.000213 ± 3.2e-05	0.000676 ± 8.4e-05	0.00184 ± 0.0002	0.00348 ± 0.00048
A12U U46A	0.00538 ± 0.00031	1.72 ± 0.14	0.000119 ± 1.5e-05		0.00161 ± 0.00033	0.00326 ± 0.0006	0.0045 ± 0.00062
A14C A15G G40U	0.000605 ± 0.0002	5.38 ± 2.7			8.18e-05 ± 1.4e-05	0.000171 ± 2.4e-05	0.000428 ± 7.3e-05
A14C G40C	0.000718 ± 6.3e-05	3.65 ± 0.53		2.58e-05 ± 1.1e-05	0.000114 ± 1.8e-05	0.000285 ± 3.3e-05	0.000533 ± 7.6e-05
G13U A14G C61A	1.4e-05 ± 5.4e-06		< 1e-05				
